Reference: the nanobody polyreactivity screen of Harvey et al. (2022)

assay: yeast display, Sf9 membrane polyspecificity reagent, FACS + sequencing; frameworks hold sequencing errors
Summary of the method: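 Sorting gates, low and high (top ~1%), were placed on anti-HA fluorescence to track expression and on streptavidin fluorescence to track reagent binding. A clone's polyreactivity label is taken from the gate it came out of. The reagent was 10% biotinylated, detergent-solubilized Sf9 membrane, applied for 1 hour at 4 °C to galactose-induced yeast display cells.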

Sequence | polyreactivity (PSR sort gate)
QVQLVESGGGLVQAGGSLRLSCAAYGNTFYRNAMGWYRQAPGKERELVAAITFSTGRTYYADSVKGRFTISRDNAKNTVYLQLNSLKPEDTAVYYCAAFYRGGDYWGQGTQVTVSS | high polyreactivity
QVQLVESGGGLVQAGGSLRLSCAAYGRIFDGNAMGWYRQAPGKERELVAAITSRGGRTYYADSVKGRFTISRDNAKNTVYLQMNSLKPEDTAVYYCNTRVKSYGHYDYWGQGTQVTVSS | high polyreactivity
QVQLVESGGGLVQAGGSLRLSCAAYGRIFGYYAMGWYRQAPGKEREFVATISRSGGRTYYADSVKGRFTISRDNAKNTVYLQMNSLKPEDTAVYYCAKGVQFGSKTTFWYDYWGQGTQVTVSS | high polyreactivity
QVQLVESGGGLVQAGGSLRLSCAAYGRTFGLYAMGWYRQAPGKERELVAAISWGGGRTYYADSVKGRFTISRDNAKHTVYLQMNSLKPEDTAVFYCNAVYSPRYYVGGYDYWGQGTQVTVSS | high polyreactivity
QVQLVESGGGLVQAGGSLRLSCAAYGRTFPLYAMGWYRQAPGKEREFVAAISSRGGRTYYADSVKGRFTISRDNEKNTVYLQMNSLKPEDTAVYYCNARYVHDGFDYWGQGTQVTVSS | high polyreactivity
QVQLVESGGGLVQAGGSLRLSCAAYGRTLGDYAMGWYRQAPGKERELVAAISSGGNTYYADSVKGRFTISRDNAKNTVYLQMKSVKPEDSAVYYCDAAHYYRSYWGQGTQETVSS | high polyreactivity
QVQLVESGGGLVQAGGSLRLSCAAYGSIFAHYAMGWYRQAPGKERELVARISWSGGSTYYADSVKGRFSISLDNAKNTVYLQMNSLKPEDTAVYYCSADLTSKSSPQGYRYDYWGQGTQVTVSS | low polyreactivity
QVQLVESGGGLVQAGGSLRLSCAAYGSTFGGNARGWYIQAPGKERELVAVISKRGGSTYYADSVKGRFTISRDYEKNTVYLQINSLKPEDTAVYYCAATYSRYWSPTYDYWGQGTQVTVSS | high polyreactivity
QVQLVESGGGLVQAGGSLRLSCAAYGSTFKSYAMGWYSQAPGKDRELVAAITHRGSTYYADSVKGRFTISRDNAKNTVYLQMNSLKPEDTAVYYCNVRRIGNGRRVDYWGQGTQVTVSS | high polyreactivity
QVQLVESGGGLVQAGGSLRLSCAAYGSTFTRYTMGWYRQAPGKDRELVASSTRTGSTNYADSVKGRFTISRDNAKNTVYLQMYSLKPEDTAVYYCAGGRYYSYRFSFGYWGQGTQVTVSS | high polyreactivity
QVQLVESGGGLVQAGGSLRLSCAAYGYIFDHYAMGWYRQAPGKERELVAAINWSGGRTYYADSVKGRFTISRDNAKNTVYLQMNSLKPEDTAVYYCAAGGVSENDYWGQGTQVTVSS | high polyreactivity
QVQLVESGGGLVQAGGSLRLSCAAYSYVMGWNRQAPGKERELVAAISQSGGSTYYADSVKGRFTISRDNPKNTVYLQMNSLKPEDTAVYYCAARREPYQYNQYYSWGQGTKVTVSS | high polyreactivity
QVQLVESGGGLVQAGGSLRLSCAAYVRIIYDYAKGWYRQAPGKERELVAAISKGGGSTYYADSVKGRFTISRDNAKNTVYLQMNSLNPEDTAVYYCAASTSHTTDTRYDYLGQGTQVTVSS | low polyreactivity
QVQLVESGGGLVQAGGSLRLSCAAYYAMGWYRHAPGKERELVAAIDDGTSTNYADSVKGRFTISRDNAKNTVYLQMNSLKPEDTAVYYCNKLSEVTYYGSKFDYWGQGTQVTVSS | low polyreactivity
QVQLVESGGGLVQAGGSLRLSCADCGSIFSSNAKGWYRQEPGKERELVAAISRSACSTYYADSVKGRFTISRDIAKNTVYLQMNSLKQEDTAVYYCNGVTRLGTYDYWGQGSQVTVSS | high polyreactivity
QVQLVESGGGLVQAGGSLRLSCADSARILYHYAIGWYRQAHGKETELVAAITRGGGTNYADSVKGRFTISRDNAKNTVYLQMNSLKPEDTAVYYCNADRFIVTRSRRGDYWGQGTQVTVSS | low polyreactivity
QVQLVESGGGLVQAGGSLRLSCADSGFILSPNTMGWYRQAPGKERELVAAMSSDVSTYADSVTGRFTISRDNAKNTVYLQMNSLKPEDTAVYYCNADDFGYASYEYWGQGTQVTVSS | low polyreactivity
